Data as given in patent US20190248887A1.

Biological target: synthetic peptide representing amino acids 24 through 39 of FXYD5 (Seq ID No. 1), coupled to maleimide activated BSA (Homo sapiens)
Experiment: chemiluminescent ELISA, BSA-coupled peptide 24-39 coated, streptavidin-HRP detection; printed as relative binding affinity

Row | EC50 | Substance
1 | 3.75 nM | N20-linker-biotin conjugate (goat polyclonal anti-FXYD5 N20, sc-30602, coupled via SM(PEG)24 to biotin) (antibody)
2 | 38.2 nM | L15-linker-biotin conjugate (goat polyclonal anti-FXYD5 L15, sc-30603, coupled via SM(PEG)24 to biotin) (antibody)
